From the DeepSol protein solubility set

Test: soluble on expression in E. coli; label from the status in PepcDB or PDB records

Soluble on expression in E. coli, soluble:
AIAGTAFPTMAEVVAEVAEMPTQMSPGAVEMSTPMSAEMMEMSTEVTEMTPGEALASSLFFQHHQFMCSECGSLYNTLEEVLSHQEQHMLAVSEEEALTTQNVGLEPELVPGAEGPFQCGECSQLILSPGELLAHQDAHLRESANQIQYQCWDCQELFPSPELWVAHRKAQHLSATVAEPPVPPPLPPPTPLPPPSPPSEVKMEPYECPECSTLCATPEEFLEHQGTHFDSLEKEERNGLEEEEEDDEEDEEDDEEMEDEEAMAEVGDDAVGGDESTAGWAQGCGDCPQHQPSAGARRQHRRTAHSPASATHPFHCSQCQRSFSSANRLQAHGRAHVGGTHECTTCSKVFKKAASLEQHLRLHRGEARYLCVDCGRGFGTELTLVAHRRAHTANPLHRCRCGKTFSNMTKFLYHRRTHAGKSGAPPTGATAPPAPAEPTPPPPPPAPPAQLPCPQCSKSFASASRLSRHRRAVHGPPERRHRCGVCGKGFKKLIHVRNHLRTHTGERPFQCHSCGKTFASLANLSRHQLTHTGARPYQCLDCGKRFTQSSNLQQHRRLHLRPVAFARAPRLPITGLYNKSPYYCGTCGRWFRAMAGLRLHQRVHARARTLTLQPPRSPSPAPPPPPEPQQTIMCTELGETIAIIETSQPLALEDTLQLCQAALGASEAGGLLQLDTAFV
MAHHHHHHSLRGIIKRLNDDGFGILYNKILVPFSAPGDEVEVLKTEKQKRAKIATEWRLLRSSPIRVGARCKVFGKCGGCILQHINYNSQLEFKKEKLRKILGREVEIIPSPRIFGHRNRIDLAVTVNAIGFREKGKWWSVVDVEECPVFGKTSKKAIERLREYIEEEKVSTWKIREDSGFLRYMVLREGKFTGEIMVNFVTKEGELPDPTSYFDFADSIYWSINRSKSDVSYGDIEKYWGKEFIMEELDGVKYLIHPNSFFQTNSYQAVNLVKTVEKFVEGEKVVDMYSGVGTFGVYLAKKGMKVVGFDSNAFAIEMANKNAEINNVEAEFFVASDREVDIKGFDTVIVDPPRAGLHPKLVKRLNDHGPETIVYVSCNPKTFKVNIEQLNNYIIEELIALDMFPHTPHIELVGKLRRLVEG
MSLGEKASKVLITSVPKCGTHLLKQVVLGAPFYKRGKWISLRESIREQIDNCHDQTIMVGHLEYSEEIVRYLNEKGIRRLFIYRDPRDMLISYVFYVKEIAPKHELRNYFLHVLGSDEERIMKLITGFHYQEENLTYGDLTLHYQPFLPWIEDKGTLALRFEDLVSSNECKEQTISKIADYLWHGSTFDQYNKAVLKKRMLENIRPSHSGTFRKGVSGDWKNYFTAQHKSVFKEVAGQLLIDLGYEKDMDEGHHHHHH
MGHHHHHHSHMACYIYQLPSWVLDDLCRNMDALSEWDWMEFASYVITDLTQLRKIKSMERVQGVSITRELLWWWGMRQATVQQLVDLLCRLELYRAAQIILNWKPAPEIRCPIPAFPDSVK
MNLKEFIIPAIDLMEGKAVRLYKGDFNKVKVYSERPWELAKNFSDLGFKRLHVVDLEGAEGGKPKNLEVIRKIRENFEGEVEVGGGIRSYEVAKALFDEGIDFVVIGTLAYKNKEEFLKILENFPNRVILAIDSKQGKVAIGGWKEETAVSPEEFAKEYENYPIWGYLYTVIERDGSLEGVDVEPYKEIKKHVKKPVIASGGVSSLEDIKKLYGIVEGVVVGKAIYEGRITLEDLQNF
MSLKCIAIDLDGTLLNKESVISAENREAIKRAVDAGILVTICTGRATFDVKALLDDLDIPIIAANGGTIHDTGYRLISRTLMDQEAGKAIADYLLSKNIYFEVYTDDHLLSPFDGEAKLHAELDILKSANPNEQTDDLWQGAMTQFKQFGIKPIPHIESVFDGGENIYKLLCFSFDMDKLKQAKEELKHHKKLAQTSSGKHIIEILPASSGKGRALTKLADIYGIETQDIYAIGDSPNDLSMFEVAGHRIAMENAIDELKEKSTFVTKSNDENGVAYFIDQLLSGQYAEGHHHHHH

Soluble on expression in E. coli, not soluble:
MIATPNILAPLHDILPLTKGEARISFIGSRSFLLEAPGEFDLPAQRWIWALSQSVSNWPDVAEIIPGMTNLLTIFKETPDDPDSVVGRLRDAWNSAQSLDLTGKTIEIPVHYGGEYATDLAAICDFSGLSDREVVRLHHEATYRVFALGSAPGFGYLHGLDPRIYMPRKTVPSIRMEKGCVTIGGMQTGVAMLTGPNGWNSIGYADLQMFDPESSVPALMAPGDIVRFVPARIELLEHHHHHH
TLDPNAQQTAYEQLSQSGYEGAVVALRPSTGEVLAMASSPSYDPNQIVDPATAEDAWAEYTSTEGAPLLNHATQESLPPGSIFKIITTAAALENGYSADSTVTAEAAVTLPGTNTTLTNYGGQTCAGGGTTTLLTAFQLSCNTAFVETGIDVGADALRASAEDFGVGQTYSLGLDNVPGGLGEIPDDAALGQSSIGQRDVQMNVLQAAVMAGTVSNGGVRMEPYLVSRVTGQDLSELSTHKPKSVGGVEPEIAEQLKTLMEASERNTSGYTGIQIASKTGTAEHGDENTPPHTWYVAFNNDIAVAVLVKDGGGFGTSATGGQVAAPIGRAVLQAAGGF
MNRRVPKSKSWKTRLSAGGANRTSLHGQMSRYPEVAEDYLIMQPSIRRSSGSDLMPVARFNNFKRWNSCLQHVESQPEDIREWDPPPPSSHCPQIYHKSQYSRRERSPDILTDDRGRPIPRRGMFLNAKYSEAARPPIDEDRIRHTEDVIKRMLYKGRRKESMGYYPNRNHLMRDQIRQTVYNLGVPNGYRAPEQDHFEDDYDDQPGPSNRHYGVSSHPEYYREDRWRLAEGDYEVDKGDGSRQLNKEKYLKKRRKQMIERESVDSEISEEEEEEEIYNKQTKRRRSQKTPIQHNKNRTESRLHQKEKSSSDEEVHEKSTSSRHSNVSRSSKSPYLNDDRAPSRGSKCTSSHHSTPKLLTPSPQYLKDSDDDDNWKNSIPFMSSSDGAGAGMRVRIGSAIASLPLRDDSKNSYSEVALMLLERSVKNLKNPQKMLIKEKPQTRIMNMSTSWAQQDPKKRNENDDDEIVPETEKAETSLMHDLSRIQHPQNATTVQMDQTLFTNSKLMKIDVAIAKNWLDTKMKKTLIPPPLFRSSPISEDVFKSSDRITMPSTIKGPESTAVGNRISSDGEEEDFATKQFDIDDYIARGASKIDFSKTITAPNTSFQEPSTSLFKDPTFFRQESKGNEMNIESFSERTPSKNRTSQQMEFQISTSSISKTKTNASLDSIHRRKSKPQPMLEFDAETQKMFDDAFQSDKKSTKEKYPF
MNIVEPLRDKDDIQAMKDYLSSWNEKYYMLFLLGINTGFRVGDILKLKVKDVQGWHIKVREQKTGKYKSIKMTRPLKNELREFVKDKELHEYLFQSRVGKNKALSYKTVYWFLKRAAEDLGIDNVGTHTMRKTFGYHYYKKYKNVADLMSLFNHSSPAVTLIYICVRQDELDTKMSNFSL
RESITDSRMAYRTISPFLTDLPQEEMWVLLLNQSGKIISMENLSRGGVSETSADVRLIMHKAVSHLASAIILAHNHPSGTVRPSEQDIQLTQRVQKAATLLGFRLNDHLIIGDDGAYFSFADEGLL
MAKNGGFSLFAKKEKRFIFEGRHSASDKLVNGEVSAFTEEEARKKLAKRGIRPLQITRVKTSSKRKITQEDITVFTRQLSTMIKAGLPLMQAFEIVARGHGNPSMTEMLMEIRGEVEQGSSLSRAFSNHPKYFDRFYCNLVAAGETGGVLESLLDKLAIYKEKTQAIRKKVKTALT
MILVDSDVLIAHLRGVVAARDWLVSARKDGPLAISVVSTAELIGGMRTAERREVWRLLASFRVQPATEVIARRAGDMMRRYRRSHNRIGLGDYLIAATADVQDLQLATLNVWHFPMFEQLKPPFAVPGHRPRA
MEISNRLKSISEVMDRCEIAADIGTDHAYLPIYLIKNNLCKRFIASDVNAGPLKKAINNINKYKLEDKIECRLGSGLNVLKLEEVDVVVIAGMGGNLIRDIIEERLDIFKKLKYAVLQPVQNPEILREYLIKRGFNIIEEQLCIDESKYYEIIKVCYDSKIEDKDDVYYEIGDKLIDMKHPLLKEYINYKIRKYDKIYKNISEESLNALSRKNELSIKIRKLKELLSCL
MNLLPYQFVGEVVRGFGRGGKELGCPTANMDGTVVNGLPEGLPVGVYFGTAKLDGKSYKMAMSIGWNPQYQNEKKTVELHLIDYSGSDFYGKTLSAVIIGFIREMKSFESLDELKSAIAMDIKVARRGSVEQGKL
MFNKILVVCVGNVCRSPTAERLLKRFHPSLTVASAGLGALVGKGADPAAASVASAHDLSLENHCARQISARLCREYDLILTMEKRHIAALCDIAPEMRGKVMLFGHWDSEREIPDPYRKSRDAFEAVYTLLERSARQWAQALNAEQGKP
